# Source: patent US20100144027
# B1: protein of the present invention having an amino acid sequence shown in SEQ ID NO:1 (protein)
# chain: YDPEAASAPGSGNPCHEASAAQKENAGEDPGLARQAPKPRKQRSSLLEKGLDGAKKAVGGLGKLGKDAVEDLESVGKGAVHDVKDVLDSVL
# Target: enterokinase
protein,measurement,value
B1,amidolytic activity against the fluorescent peptide substrate for trypsin (increase in fluorescence intensity),a minimal proteolytic activity exhibited by enterokinase alone was significantly enhanced by the protein of the present invention immunoprecipitated from JAR cells
